In paper PMC4821239, “Molecular architecture of the Dam1 complex–microtubule interaction” (Open Biology, 2016):

B1: Dam1 complex (complex, budding yeast)
chain 1: MSEDKAKLGTTRSATEYRLSIGSAPTSRRSSMGESSSLMKFADQEGLTSSVGEYNENTIQQLLLPKIRELSDSIITLDSNFTRLNFIHESLADLNESLGSLLYGIMSNSWCVEFSQAPHDIQDDLIAIKQLKSLEDEKNNLVMELSNMERGIKRKKDEQGENDLAKASQNKQFNQPLFPSSQVRKYRSYDNRDKRKPSKIGNNLQVENEEDYEDDTSSEASFVLNPTNIGMSKSSQGHVTKTTRLNNNTNSKLRRKSILHTIRNSIASGADLPIENDNVVNLGDLHPNNRISLGSGAARVVNGPVTKNRNSMFSGRAERKPTESRHSVAKKTEKKINTRPPFR
chain 2: MSEQSQLDDSTIDKLIPQIFNEMRSNLNNTTNKFPKSTGGGASDNISANSNSIRSFNSITTQSLLKESESLDKITAMIKNVTAALKNNLPVYVNQVHEVCKSTNSILDSWINIHSQAGYIHKLMSDQTYLKLINDRLHNENVNTNDEDGSTLHNVIALKKKEILDLRQKLENRKGEKDAAPAKPPNQGLNPRYGVQSGRRPVPSAGISNNGRVRKTHVPASKRPSGIPRVTNRWTKPTASSSRKMFR
chain 3: MMASTSNDEEKLISTTDKYFIEQRNIVLQEINETMNSILNGLNGLNISLESSIAVGREFQSVSDLWKTLYDGLESLSDEAPIDEQPTLSQSKTK
chain 4: MDSIDEQIAIKRKELQSLQKITSLTDGLKIQLTELNEQIKEMGMNADSVAQLMNNWDSIINNISQASLGLLQYAEGDYEIGPWKDSKKKESEQSNETGLEAQENDKNDEDNDEDEDLVPLPETMVRIRVDGNE
chain 5: MEHNLSPLQQEVLDKYKQLSLDLKALDETIKELNYSQHRQQHSQQETVSPDEILQEMRDIEVKIGLVGTLLKGSVYSLILQRKQEQESLGSNSK
chain 6: MENPHEQVQANILSRIIGNVKRLNESVAILNQELVTINNRNKNLEIMGAICDNYHSSVQFNLEATNNKKPPL
chain 7: MNANKQRQYNQLAHELRELQTNLQETTKQLDIMSKQCNENLVGQLGKVHGSWLIGSYIYYMEQMLGKTQ
chain 8: MDSASKEETLEKLDQEITVNLQKIDSNLSFCFHKITQDIIPHVATYSEICERIMDSTEWLGTMFQETGLVNLQANAAAPVGNAPVKSLVSNNVGIFPTSAEEASRQSQTDNGPNEADSAVHVNRDVHSMFNNDSIDDFHTANITSTGQILKLPDSSDEDTGSEAVPSREQTDLTGEGHGGADDEQDESTIQRQSRKRKISLLLQQQYGSSSSMVPSPIVPNKMRKQLAHEEHINNDGDNDDENSNNIESSPLKQGHHHPKGQADDNNEGPDEEESTKEVPKPGTIIHFSTNR
chain 9: MTDALEQSVLALEGTVSVLKDSVESLKCANEPSTNLASTMLQTKRVFRLVPEYDVERSKLDLIEEVEPLVRTLGDKLRKSMGRMQRELDTLQQTYELNDLRLKKNISMDDDDALNSPDMGQEYEGRDADDVVMMASSTNEELEELKKLKEKKKQLENKLEILKQK
chain 10: MGESLDRCIDDINRAVDSMSTLYFKPPGIFHNAILQGASNKASIRKDITRLIKDCNHDEAYLLFKVNPEKQSVSRRDGKEGVFDYVIKRDTDMKRNRRLGRPGEKPIIHVPKEVYLNKDRLDLNNKRRRTATTSGGGLNGFIFDTDLIGSSVISNSSSGTFKALSAVFKDDPQIQRLLYALENGSVLMEEESNNQRRKTIFVEDFPTDLILKVMAEVTDLWPLTEFKQDYDQLYHNYEQLSSKLRFIKKEVLLQDDRLKTMSQYHPSSSHDVAKIIRKEKDEIRRLEMEIANLQE
notes: Dam1, budding yeast; Duo1, budding yeast; Dad1, budding yeast; Dad2, budding yeast; Dad3, budding yeast; Dad4, budding yeast; Hsk3, budding yeast; Ask1, budding yeast; Spc19, budding yeast; Spc34, budding yeast; 10-subunit complex; also called heterodecameric Dam1 complex; wild-type Dam1 complex; source: expressed and purified as described [3]; copies: + + + + + + + + +
B2: Spc19 (natural protein, budding yeast, UniProt Q03954 1-165, looked up)
chain: B1 chain 9
notes: Spc19, subunit of the budding yeast Dam1 complex; Subunit inside the recombinant 10-subunit complex; also called Sp19; source: expressed and purified as part of the Dam1 complex as described [3]
B3: Duo1 (natural protein, budding yeast, UniProt P53168 1-247, looked up)
chain: B1 chain 2
notes: Duo1, subunit of the budding yeast Dam1 complex; Subunit inside the recombinant 10-subunit complex; also called Duo1 subunit; source: expressed and purified as part of the Dam1 complex as described [3]
B4: Dad2 (natural protein, budding yeast, UniProt P36162 1-133, looked up)
chain: B1 chain 4
notes: Dad2, subunit of the budding yeast Dam1 complex; Subunit inside the recombinant 10-subunit complex; source: expressed and purified as part of the Dam1 complex as described [3]
B5: Spc34 (natural protein, budding yeast, UniProt P36131 1-295, looked up)
chain: B1 chain 10
notes: Spc34, subunit of the budding yeast Dam1 complex; Subunit inside the recombinant 10-subunit complex; source: expressed and purified as part of the Dam1 complex as described [3]
B6: Ask1 (natural protein, budding yeast, UniProt P35734 1-292, looked up)
chain: B1 chain 8
notes: Ask1, subunit of the budding yeast Dam1 complex; Subunit inside the recombinant 10-subunit complex; source: expressed and purified as part of the Dam1 complex as described [3]
B7: Duo1Δ184 (domain or fragment, budding yeast, UniProt P53168 1-183, looked up)
chain: MSEQSQLDDSTIDKLIPQIFNEMRSNLNNTTNKFPKSTGGGASDNISANSNSIRSFNSITTQSLLKESESLDKITAMIKNVTAALKNNLPVYVNQVHEVCKSTNSILDSWINIHSQAGYIHKLMSDQTYLKLINDRLHNENVNTNDEDGSTLHNVIALKKKEILDLRQKLENRKGEKDAAPAK
notes: Duo1, budding yeast; stop codon inserted at position 184; Subunit inside the Dam1 complex Duo1Δ184; also called Duo1 lacking its C terminus (Δ184); source: purified as part of the Dam1 complex Duo1Δ184 (Ni–NTA, Superose 6 size-exclusion chromatography)

Assays:
[1] = molecular target: the molecule itself; test: cross-linking; BS3, Dam1 complex at 0.05 mg/ml in solution; cross-linked species (approx. 110, 220 and 440 kDa) separated by SDS-PAGE, bands cut out, in-gel trypsin digestion, mass spectrometry
Dam1 [2] = molecular target: T1, Dam1 (budding yeast, UniProt P53267 1-343); test: cross-linking; BS3, Dam1 complex at 0.3 mg/ml in BRB80, room temperature 40-60 min, digested in solution, mass spectrometry; some links may be between oligomerizing complexes; conditions: both partners purified
T1 construct: Dam1, subunit of the budding yeast Dam1 complex; Subunit inside the recombinant 10-subunit complex; also called Dam1 subunit; source: expressed and purified as part of the Dam1 complex as described [3]
T1 sequence (looked up): B1 chain 1

Duo1 = molecular target: B3; test: as above; conditions: both partners purified
Ask1 [3] = molecular target: B6; test: as above; conditions: both partners purified
Spc34 [4] = molecular target: B5; test: cross-linking; BS3, Dam1 complex at 0.05 mg/ml in solution; cross-linked species (approx. 110, 220 and 440 kDa) separated by SDS-PAGE, bands cut out, in-gel trypsin digestion, mass spectrometry; conditions: both partners purified
Spc34 [5] = molecular target: B5; test: cross-linking; BS3, Dam1 complex at 0.3 mg/ml in BRB80, room temperature 40-60 min, digested in solution, mass spectrometry; some links may be between oligomerizing complexes; conditions: both partners purified
Ask1 [6] = molecular target: B6; test: cross-linking; EDC with Sulfo-NHS, Dam1 complex assembled on taxol-stabilized microtubules in BRB80, pellet washed, room temperature 1 h, digested in solution, mass spectrometry; conditions: both partners purified
Spc19 = molecular target: B2; test: cross-linking; BS3, Dam1 complex at 0.05 mg/ml in solution; cross-linked species (approx. 110, 220 and 440 kDa) separated by SDS-PAGE, bands cut out, in-gel trypsin digestion, mass spectrometry; conditions: both partners purified
Dam1 [7] = molecular target: T1, Dam1; test: cross-linking; BS3, size-exclusion fraction of the Dam1 complex Duo1Δ184 eluting as the full complex, mass spectrometry; conditions: both partners purified

B1
stoichiometry N [1]: 2

B2
binding result (Dam1 [2]): binds | binding result (Duo1): binds | binding result (Ask1 [3]): binds | binding result (Spc34 [4]): binds

B3
binding result (Spc34 [5]): binds | binding result (Dam1 [2]): binds | binding result (Ask1 [3]): binds

B4
binding result (Ask1 [6]): binds | binding result (Dam1 [2]): binds | binding result (Spc19): binds

B5
binding result (Dam1 [2]): binds

B6
binding result (Spc34 [5]): binds | binding result (Dam1 [2]): binds

B7
binding result (Dam1 [7]): binds
